Data on five sequences can be found in the supplement of paper PMC5998384.

Data set [1] relates to HeLa Kyoto. The experiment in a line: solubility change mitosis vs G1/S (difference of NP-40 vs SDS log2 ratios) (log2 ratio difference); higher = more soluble in mitosis.
In data set [2] the test system is HeLa Kyoto. The experiment in a line: thermal stability score vs G1/S (z-score of summed log2 fold changes over temperatures); higher = more thermally stable than in G1/S.
Data set [3] deals with HeLa Kyoto. Briefly: solubility in G1/S (NP-40 vs SDS abundance) (log2 ratio); higher = more soluble. Conditions: cell cycle stage: G1/S.
Data set [4] relates to HeLa Kyoto. The experiment in a line: melting temperature (median over replicates), in situ; higher = more thermally stable.
Where [5] appears, read: cell cycle stage: early G1 (4.5 h after nocodazole release).
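Wherever melting temperature (median over replicates), in situ is given: HeLa Kyoto cells synchronized by double thymidine or nocodazole block, proteins quantified by TMT10plex mass spectrometry, three independent biological replicates.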
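Wherever solubility change mitosis vs G1/S (difference of NP-40 vs SDS log2 ratios) is given: synchronized HeLa Kyoto cells (double thymidine block for G1/S, nocodazole release for mitosis), protein amounts in NP-40 versus SDS lysates quantified by mass spectrometry, three biological replicates.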
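Wherever solubility in G1/S (NP-40 vs SDS abundance) is given: HeLa Kyoto cells arrested at G1/S by double thymidine block, proteins quantified by TMT10plex mass spectrometry in mild NP-40 versus SDS extracts, three biological replicates.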
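Wherever thermal stability score vs G1/S (z-score of summed log2 fold changes over temperatures) is given: synchronized HeLa Kyoto cells, proteins quantified by TMT10plex mass spectrometry, three biological replicates, mitosis taken 0.5 h after nocodazole release, G1/S directly after double thymidine block.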

Regarding “MRAVLDTADIAIVALYFILVMCIGFFAMWKSNRSTVSGYFLAGRSMTWVAIGASLFVSNIGSEHFIGLAGSGAASGFAVGAWEFNALLLLQLLGWVFIPIYIRSGVYTMPEYLSKRFGGHRIQVYFAALSLILYIFTKLSVDLYSGALFIQESLGWNLYVSVILLIGMTALLTVTGGLVAVIYTDTLQALLMIIGALTLMIISIMEIGGFEEVKRRYMLASPDVTSILLTYNLSNTNSCNVSPKKEALKMLRNPTDEDVPWPGFILGQTPASVWYWCADQVIVQRVLAAKNIAHAKGSTLMAGFLKLLPMFIIVVPGMISRILFTDDIACINPEHCMLVCGSRAGCSNIAYPRLVMKLVPVGLRGLMMAVMIAALMSDLDSIFNSASTIFTLDVYKLIRKSASSRELMIVGRIFVAFMVVISIAWVPIIVEMQGGQMYLYIQEVADYLTPPVAALFLLAIFWKRCNEQGAFYGGMAGFVLGAVRLILAFAYRAPECDQPDNRPGFIKDIHYMYVATGLFWVTGLITVIVSLLTPPPTKEQIRTTTFWSKKNLVVKENCSPKEEPYKMQEKSILRCSENNETINHIIPNGKSEDSIKGLQPEDVNLLVTCREEGNPVASLGHSEAETPVDAYSNGQAALMGEKERKKETDDGGRYWKFIDWFCGFKSKSLSKRSLRDLMEEEAVCLQMLEETRQVKVILNIGLFAVCSLGIFMFVYFSL [SLC5A3]”, the “solubility change mitosis (log2)” value with HeLa Kyoto [1] is 0.0469. For the same sequence, the figures for the thermal stability score with HeLa Kyoto [2] (setting [5]) and in the data set on HeLa Kyoto [2] (cell cycle stage: mitosis) were 0.7 and 0.41, respectively. For the same sequence, in the data set with HeLa Kyoto [3], the “solubility in G1/S (log2)” value is -0.218. Moreover, the melting temperature amounted to 57.3 °C in the data set with HeLa Kyoto [4] (cell cycle stage: G1/S) and 55.9 °C in the data set on HeLa Kyoto [4] (cell cycle stage: mitosis).

For “MRCALALSALLLLLSTPPLLPSSPSPSPSPSQNATQTTTDSSNKTAPTPASSVTIMATDTAQQSTVPTSKANEILASVKATTLGVSSDSPGTTTLAQQVSGPVNTTVARGGGSGNPTTTIESPKSTKSADTTTVATSTATAKPNTTSSQNGAEDTTNSGGKSSHSVTTDLTSTKAEHLTTPHPTSPLSPRQPTSTHPVATPTSSGHDHLMKISSSSSTVAIPGYTFTSPGMTTTLLETVFHHVSQAGLELLTSGDLPTLASQSAGITASSVISQRTQQTSSQMPASSTAPSSQETVQPTSPATALRTPTLPETMSSSPTAASTTHRYPKTPSPTVAHESNWAKCEDLETQTQSEKQLVLNLTGNTLCAGGASDEKLISLICRAVKATFNPAQDKCGIRLASVPGSQTVVVKEITIHTKLPAKDVYERLKDKWDELKEAGVSDMKLGDQGPPEEAEDRFSMPLIITIVCMASFLLLVAALYGCCHQRLSQRKDQQRLTEELQTVENGYHDNPTLEVMETSSEMQEKKVVSLNGELGDSWIVPLDNLTKDDLDEEEDTHL [PODXL]”, the “solubility change mitosis (log2)” value with HeLa Kyoto [1] was -0.092. The thermal stability score was -3.38 with HeLa Kyoto [2] (setting [5]) and -2.15 in the data set with HeLa Kyoto [2] (cell cycle stage: mitosis). In the data set with HeLa Kyoto [3], the “solubility in G1/S (log2)” value is -0.214. The same sequence returned a melting temperature in the data set with HeLa Kyoto [4] (cell cycle stage: G1/S) of 58.6 °C.

With “MRCLAARVNYKTLIIICALFTLVTVLLWNKCSSDKAIQFPRRSSSGFRVDGFEKRAAASESNNYMNHVAKQQSEEAFPQEQQKAPPVVGGFNSNVGSKVLGLKYEEIDCLINDEHTIKGRREGNEVFLPFTWVEKYFDVYGKVVQYDGYDRFEFSHSYSKVYAQRAPYHPDGVFMSFEGYNVEVRDRVKCISGVEGVPLSTQWGPQGYFYPIQIAQYGLSHYSKNLTEKPPHIEVYETAEDRDKNKPNDWTVPKGCFMANVADKSRFTNVKQFIAPETSEGVSLQLGNTKDFIISFDLKFLTNGSVSVVLETTEKNQLFTIHYVSNAQLIAFKERDIYYGIGPRTSWSTVTRDLVTDLRKGVGLSNTKAVKPTKIMPKKVVRLIAKGKGFLDNITISTTAHMAAFFAASDWLVRNQDEKGGWPIMVTRKLGEGFKSLEPGWYSAMAQGQAISTLVRAYLLTKDHIFLNSALRATAPYKFLSEQHGVKAVFMNKHDWYEEYPTTPSSFVLNGFMYSLIGLYDLKETAGEKLGKEARSLYERGMESLKAMLPLYDTGSGTIYDLRHFMLGIAPNLARWDYHTTHINQLQLLSTIDESPVFKEFVKRWKSYLKGSRAKHN [GLCE]”, the “solubility change mitosis (log2)” value in the data set with HeLa Kyoto [1] was -0.162. Further, the thermal stability score in the data set with HeLa Kyoto [2] (setting [5]) was -0.914; in the data set on HeLa Kyoto [2] (cell cycle stage: mitosis), -0.99. In addition, the “solubility in G1/S (log2)” value in the data set with HeLa Kyoto [3] was -0.0659. The melting temperature with HeLa Kyoto [4] (cell cycle stage: G1/S) and in the data set with HeLa Kyoto [4] (cell cycle stage: mitosis) was 53.9 °C in each case.

“MREIVHIQAGQCGNQIGAKFWEVISDEHGIDPTGTYHGDSDLQLDRISVYYNEATGGKYVPRAILVDLEPGTMDSVRSGPFGQIFRPDNFVFGQSGAGNNWAKGHYTEGAELVDSVLDVVRKEAESCDCLQGFQLTHSLGGGTGSGMGTLLISKIREEYPDRIMNTFSVVPSPKVSDTVVEPYNATLSVHQLVENTDETYCIDNEALYDICFRTLKLTTPTYGDLNHLVSATMSGVTTCLRFPGQLNADLRKLAVNMVPFPRLHFFMPGFAPLTSRGSQQYRALTVPELTQQVFDAKNMMAACDPRHGRYLTVAAVFRGRMSMKEVDEQMLNVQNKNSSYFVEWIPNNVKTAVCDIPPRGLKMAVTFIGNSTAIQELFKRISEQFTAMFRRKAFLHWYTGEGMDEMEFTEAESNMNDLVSEYQQYQDATAEEEEDFGEEAEEEA [TUBB]”: in the data set with HeLa Kyoto [1], the “solubility change mitosis (log2)” value is -0.117. Also, the thermal stability score in the data set on HeLa Kyoto [2] (setting [5]) is 0.696; in the data set on HeLa Kyoto [2] (cell cycle stage: mitosis), -1.83. Also, the “solubility in G1/S (log2)” value in the data set on HeLa Kyoto [3] is 0.245. Further, the melting temperature in the data set on HeLa Kyoto [4] (cell cycle stage: G1/S) was found to be 56.4 °C; in the data set with HeLa Kyoto [4] (cell cycle stage: mitosis), 54.4 °C.

On to “MREYKLVVLGSGGVGKSALTVQFVQGIFVEKYDPTIEDSYRKQVEVDCQQCMLEILDTAGTEQFTAMRDLYMKNGQGFALVYSITAQSTFNDLQDLREQILRVKDTEDVPMILVGNKCDLEDERVVGKEQGQNLARQWCNCAFLESSAKSKINVNEIFYDLVRQINRKTPVEKKKPKKKSCLLL [RAP1A]”, for which, in the data set on HeLa Kyoto [1], the “solubility change mitosis (log2)” value was -0.0963. The figures for the thermal stability score with HeLa Kyoto [2] (setting [5]) and with HeLa Kyoto [2] (cell cycle stage: mitosis) were 1.29 and -0.46, respectively. Moreover, in the data set on HeLa Kyoto [3], the “solubility in G1/S (log2)” value turned out to be 0.0631. Moreover, the melting temperature with HeLa Kyoto [4] (cell cycle stage: G1/S) is 58.5 °C; with HeLa Kyoto [4] (cell cycle stage: mitosis) it was 57.6 °C.
